From the nanobody polyreactivity screen of Harvey et al. (2022)

experiment: yeast display, Sf9 membrane polyspecificity reagent, FACS + sequencing; frameworks hold sequencing errors
Outline: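 Nanobodies came from a synthetic yeast display library in Saccharomyces cerevisiae BJ5465, induced with galactose for 36–48 hours and stained for 1 hour at 4 °C with 10% biotinylated, detergent-solubilized Sf9 membrane reagent. Cells were enriched on streptavidin microbeads and then FACS-sorted, with low and high (top ~1%) gates set on anti-HA fluorescence for expression and streptavidin fluorescence for reagent binding. Each polyreactivity label reflects the gate a clone came from. Genes were amplified by colony PCR, sequenced by MiSeq 2 × 250 and filtered by CDR length.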

| Sequence | polyreactivity (PSR sort gate) |
| --- | --- |
| QVQLVESGGGLVQAGGSLRLSCAASGSIFVSYAMGWYRQAPGKERELVAAITSAGTTYYADSVKGRFTISRDNAKNTVYLQMNSLKQEDTAVYYCNTDASFKRTRVSPETEYGYWGQGTQVTVSS | low polyreactivity |
| QVQLVESGGGLVQAGGSLRLSCAASGSIFVSYAMGWYRQAPGKERELVAAITVSGGSTYYADSVKGRFTISRDNAKNTVYLQMNSLKPEDTAVYYCAADSWDDWVVEFYYWGQGTQVTVSS | low polyreactivity |
| QVQLVESGGGLVQAGGSLRLSCAASGSIFVSYAMGWYRQAPGKERELVAAITVSGGSTYYADSVKGRFTISRDNAKNTVYLQMNSMKPEDTAVYYCAADSWDDWVVEFYYWGQGTQVTVSS | low polyreactivity |
| QVQLVESGGGLVQAGGSLRLSCAASGSIFVTNAMAWYSQAPGKERELVAAISWRGGSTYYADSVKGRFTISRDNAKNTVYLQMNSLKPEDTAVYYCNTYHPYWGSGFDYWGQGTEVTVSS | low polyreactivity |
| QVQLVESGGGLVQAGGSLRLSCAASGSIFVTNAMGWYRQAPGKERELVAAISGGADSTYADSVKGRFTISRDNAKNTVYFQMNSLKPEDTAVYYCAAKVRGWHYYYWGQGTQVTVSS | low polyreactivity |
| QVQLVESGGGLVQAGGSLRLSCAASGSIFVTNAMGWYRQAPGKERELVAAISGGADSTYADSVKGRFTISRDNAKNTVYLQMNSLKPEDTAVYYCAAKVRGWHYYYCGQGTQVTVSS | low polyreactivity |
| QVQLVESGGGLVQAGGSLRLSCAASGSIFVTNAMGWYRQAPGKERELVAAISVSGGSTYYADSVKGRFTISRDKAKNTVYLQMNSLKPEDTAVYYCNTVRSPPGHDYWGLGTQVTVSS | low polyreactivity |
| QVQLVESGGGLVQAGGSLRLSCAASGSIFVTYAMGWYRQAPGKERELVAAINYSGGSTYYADSVKGRFTISRDNAKNTVYLQMNSVKPEDTAVYYCAATTRYYSYGYWGQGTQVTVSS | low polyreactivity |
| QVQLVESGGGLVQAGGSLRLSCAASGSIFVTYAMGWYRQAPGKERELVASITLSGGSTYYADSVKGRFTISRDNAKNTVYFQKNSLKPEDTEVYYCNAEGTSWTSTRFDYWGQGTQVTVSS | high polyreactivity |
| QVQLVESGGGLVQAGGSLRLSCAASGSIFVVNAMGWYRQAPGKERELVAAIRLSGGSTYYADSVKGRFTISRDNAKNTVYLQMNSLKPEDTAVYDCAARYRELRTEYYYWGQGTQVTVSS | high polyreactivity |
| QVQLVESGGGLVQAGGSLRLSCAASGSIFVVYAMGWSREGPGKERELVAAISWGIGSTYYADSVKGRFTISRDNAKNTVYLQPNSLKPEDTAVYYCAADTDIVLYDYWGQGTQVTVSS | low polyreactivity |
| QVQLVESGGGLVQAGGSLRLSCAASGSIFVWYDLGWSRQAPGKERELVATISLSGVSTYYADSVKGRFTISRDTAKNTVYLQMISLKPEDTAVYYCAADFVEQGVDDFWGQGSQVTVSS | low polyreactivity |
| QVQLVESGGGLVQAGGSLRLSCAASGSIFVYNAMGWYRKATGKERELVAGITFIGGSTYYADSVKGRFTISRDNAKNTVYLQMNSLKPEDTAVYYCNADVAPGIFYGYDSWGQGTQVTVSS | low polyreactivity |
| QVQLVESGGGLVQAGGSLRLSCAASGSIFVYNAMGWYRQAPGKEREFVAAISWSVGRTYYADSVKGRFTFSRDNEKNTVYLQMNSLKPEDNAVYYCNAEFVAWYYYEEHDGDYWGQGTQVTVSS | high polyreactivity |
| QVQLVESGGGLVQAGGSLRLSCAASGSIFVYNAMGWYRQAPGKERELVAAIDTVGSTNYADSVKGRFTISRDNAKNTVYLQMNSLNPEDSAVYYCAVVTPYWSFYEQVIPSNYWGQGTQVSVSS | low polyreactivity |
| QVQLVESGGGLVQAGGSLRLSCAASGSIFVYNAMGWYRQAPGKERELVAAISSTGGSTYYADSVKGRFTISRDNAKNTVYLQMNSLKPEDTAVYYCARQGRYTRGDYWGQGTQVTVSS | high polyreactivity |
| QVQLVESGGGLVQAGGSLRLSCAASGSIFVYNAMGWYRQAPGKERELVARITGRGGRTYYADSVKGRFTISRDNAKNTVYLQMNSLKPEDTAVYYCAAAKYGDYRGSPYKYGYWGQGTQVTVSS | high polyreactivity |
| QVQLVESGGGLVQAGGSLRLSCAASGSIFVYYAMGWYRQAPGKERELVAAIDVSDGGTYYAESVKGRFTISRDNAKNTVYLQMNSLKPEVTAVYYCAADQGIDVPYIGYDYWGQGTQVTVSS | high polyreactivity |
| QVQLVESGGGLVQAGGSLRLSCAASGSIFVYYAMGWYRQAPGKERELVAGISRTGGRTYYADSVKGRFTISRDNAKITVYLQMNSLKPEDTAVYYCAAVSYYKSYGEFDYWGQGTQVTVSS | high polyreactivity |
| QVQLVESGGGLVQAGGSLRLSCAASGSIFVYYAMGWYRQAPGKERELVARIRIGGSTNYADSVKGRFTISRDNAKNTVYLQMNSLKPEDTAVYYCIKYSVLSRQRYSHPVNYDSWGQGTQVTVSS | high polyreactivity |
| QVQLVESGGGLVQAGGSLRLSCAASGSIFVYYVMGWYRQAPGKERELVAAISSGGRTYYADSVKGRFTISRDNAKNTVYLQMNSLKPEDTAVYYCAAVWYWTQDYDYWGQGTQVTVSS | low polyreactivity |
| QVQLVESGGGLVQAGGSLRLSCAASGSIFWAYTMGWYRQAPGKERELVAAISASGGSTYYADSVKGRFTISRDNAKNTVYFQMNSLKPEDTAVYYCAAVYDLGYYGPIWAIVLDDYWGQGTQVTVSS | low polyreactivity |

| Sequence | polyreactivity (PSR sort gate) |
| --- | --- |
| QVQLVESGGGLVQAGGSLRLSCAASGSIFWFNAMGWYRQAPGKERELVAAISTGGGTNYADSVKGRFTISRDNAKNTLYLKMNSLKPEDTAVYYCATYKVSRYISYDYWGQGPQVTVSS | low polyreactivity |
| QVQLVESGGGLVQAGGSLRLSCAASGSIFWFYAMGWYRQAPGKERELVAAITSTGGTYYADSVKGRFTISRDNAKNTVYLQMNSLKPEDTAVYYCAADRIGGPGSYLYDYWGQGTQVTVSS | low polyreactivity |
| QVQLVESGGGLVQAGGSLRLSCAASGSIFWFYGMGWYRQAPGKERELVAAISWSGGNTYADSVKGRFTISRDNAKNTVYVQMNSLKPEDTAVYYCNAVVRAYYTSIWVPRYDYWGQGTQVTVSS | high polyreactivity |
| QVQLVESGGGLVQAGGSLRLSCAASGSIFWGNAMGWYRQAPGKERELVAAIRRGTSTYYADSVKGRFTISRDNAKNTVYVQMNSLKPEDTAVYYCAASPFRYVYHFDYWGQGTQVTVSS | high polyreactivity |
| QVQLVESGGGLVQAGGSLRLSCAASGSIFWGYAMGWNRQAPRKEREMVATITYGGDSTYYADSVKGRFTISRDNAKNTVYLQMNSLKPEDTAVYYCNVGVEPYDYVYWGQGTQVTVSS | low polyreactivity |
| QVQLVESGGGLVQAGGSLRLSCAASGSIFWGYAMGWYRQAPGKERELVAVISRGGSTYYADSVKGRFTISRDNAKNTVYLQMNSLKPEDTAVYYCADSSSWFYSPEYDYWGQGTQVTVSS | low polyreactivity |
| QVQLVESGGGLVQAGGSLRLSCAASGSIFWGYDMGWYRQAPGKERELVASISYSGGSTSYADSVKGRFTISRDNAKNTVYLQMNSLKPEDTAVYYCAADEGGFWWTYPYDSWGQGTQVTVSS | low polyreactivity |
| QVQLVESGGGLVQAGGSLRLSCAASGSIFWKNVMGWYRHAPGKERELVAGISQNGGSTTYADSVKGRFTISRDNAKNTVYLQMNSLKPEDTAVYYCAAKRYGPFKYGYWGQGTQVTVSS | high polyreactivity |
| QVQLVESGGGLVQAGGSLRLSCAASGSIFWLYAMGWYRQAPGKERELVAAISWSGTSTNYADSVKGRFTISRDNAKNTVYLQMNSLKPEDTAVYYCAAKWHVRGRGARYRYDYDYWGQGTQVTVSS | low polyreactivity |
| QVQLVESGGGLVQAGGSLRLSCAASGSIFWNNAMGWYRQAPGKERELVAGISSAGSTNYADSVKGRFTISRDNAKNTVYLQMNILKPEDTAVYYCAAVYYGGFSDYDYWGQGTQVTVSS | low polyreactivity |
| QVQLVESGGGLVQAGGSLRLSCAASGSIFWPNAMGWYRQAPGKERELVAAISWGTGSTYYADSVKGRFTISRDNAKNTVYLQMNSLKPEDTAVYYCAADGAYLDPYYDYWGQGTQVTVLS | low polyreactivity |
| QVQLVESGGGLVQAGGSLRLSCAASGSIFWPYAMGWYRQAPGKDRELVATITWTGGSTYYADSVKGRFTISRDNAKNTVYLQMNSLKPEDTAVYYCAAAGYYGYGYDYWGQGTQVTVSS | low polyreactivity |
| QVQLVESGGGLVQAGGSLRLSCAASGSIFWPYAMGWYRQAPGKERELVAAITWSGSSTYYADSVKGRFTISRDNAKNTVYLQMKSLKPEDTAVYYCAKRGWGIYDYWGQGTQVTVSS | low polyreactivity |
| QVQLVESGGGLVQAGGSLRLSCAASGSIFWPYAMGWYRQAPGKERELVAGISRSGGITYYADSVKGRFTISRDNAKNTVYLQMNSLKPEDTAVYYCARYQEWRQEYDYWGQGTQVTVSS | high polyreactivity |
| QVQLVESGGGLVQAGGSLRLSCAASGSIFWRNAMGWYRQAPGKERELVAAITSGGTTNYADSVKGRFTISRDNAKNTVYLQMISLIPEDTAVYYCATGASYLRRYDHPHSDVDYWGQGTQVTVSS | low polyreactivity |
| QVQLVESGGGLVQAGGSLRLSCAASGSIFWSNAMGWYRPATGKERELVAAISSGGSTYADSVKGRFTISRDNAKNTVYLQMNSLKPVDTAVYYCNADVLYGDYYRGGYWGQGTQVTVSS | low polyreactivity |
| QVQLVESGGGLVQAGGSLRLSCAASGSIFWSNAMGWYRQAPGKEREFVAAITWSGDNTYYADSVKGRFTISRDNAKNTVYLQMNSLKPEDTAVYYCAASGDYYWDEGDYWGQGTQVTVSS | low polyreactivity |
| QVQLVESGGGLVQAGGSLRLSCAASGSIFWSNAMGWYRQAPGKEREFVATITNGTTTNYADSVKGRFTISRDNAKNTVYLQMNSLKPEDTAVYYCAVTGVYVKYDYWGQGTQVTVSS | low polyreactivity |
| QVQLVESGGGLVQAGGSLRLSCAASGSIFWTNAMGWYRQAPGKERELVAAITSGGNTNYADSVKGRFTISRDNAKNTVYLQMNSLKPEDTAVYYCAARYGRGWRRTYTQYDSWGQGTQVTVSS | low polyreactivity |
| QVQLVESGGGLVQAGGSLRLSCAASGSIFWTYAMGWYRQAPGKERELVAGIRWSGGTTYADSVKGRFTISRDNAKNTVYLQMNSLKPEDTAVYYCNHYLSTYHGTFTYGYWGQGTQVTVSS | low polyreactivity |
| QVQLVESGGGLVQAGGSLRLSCAASGSIFWVYAMGWSRQAPGKERELVAAISNSGSTNYADSVKGRFTISRDNAKNTVYLQMNSLKPEDTAVYYCAKDSLVDHVGGYDYWGQGTQVTVSS | low polyreactivity |
